Measured values reported in article PMC11264237 (Archives of biochemistry and biophysics, 2024).

T1: GST fused to the ATP8A1 tail (amino acids 1049-1163) (human, UniProt Q9Y2Q0 1049-1163)
T1 sequence (looked up): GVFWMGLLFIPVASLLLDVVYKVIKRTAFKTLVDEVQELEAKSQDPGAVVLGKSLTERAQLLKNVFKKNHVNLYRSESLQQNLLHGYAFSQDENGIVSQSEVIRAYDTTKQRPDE

B1: BIG2 (natural protein, human (endogenous in HeLa), UniProt Q9Y6D5 1-1785, looked up)
chain: MQESQTKSMFVSRALEKILADKEVKRPQHSQLRRACQVALDEIKAEIEKQRLGTAAPPKANFIEADKYFLPFELACQSKSPRVVSTSLDCLQKLIAYGHITGNAPDSGAPGKRLIDRIVETICSCFQGPQTDEGVQLQIIKALLTAVTSPHIEIHEGTILQTVRTCYNIYLASKNLINQTTAKATLTQMLNVIFTRMENQVLQEARELEKPIQSKPQSPVIQAAAVSPKFVRLKHSQAQSKPTTPEKTDLTNGEHARSDSGKVSTENGDAPRERGSSLSGTDDGAQEVVKDILEDVVTSAIKEAAEKHGLTEPERVLGELECQECAIPPGVDENSQTNGIADDRQSLSSADNLESDAQGHQVAARFSHVLQKDAFLVFRSLCKLSMKPLGEGPPDPKSHELRSKVVSLQLLLSVLQNAGPVFRTHEMFINAIKQYLCVALSKNGVSSVPDVFELSLAIFLTLLSNFKMHLKMQIEVFFKEIFLNILETSTSSFEHRWMVIQTLTRICADAQCVVDIYVNYDCDLNAANIFERLVNDLSKIAQGRSGHELGMTPLQELSLRKKGLECLVSILKCMVEWSKDLYVNPNHQTSLGQERLTDQEIGDGKGLDMARRCSVTSMESTVSSGTQTTVQDDPEQFEVIKQQKEIIEHGIELFNKKPKRGIQFLQEQGMLGTSVEDIAQFLHQEERLDSTQVGDFLGDSARFNKEVMYAYVDQLDFCEKEFVSALRTFLEGFRLPGEAQKIDRLMEKFAARYIECNQGQTLFASADTAYVLAYSIIMLTTDLHSPQVKNKMTKEQYIKMNRGINDSKDLPEEYLSSIYEEIEGKKIAMKETKELTIATKSTKQNVASEKQRRLLYNLEMEQMAKTAKALMEAVSHAKAPFTSATHLDHVRPMFKLVWTPLLAAYSIGLQNCDDTEVASLCLEGIRCAIRIACIFGMQLERDAYVQALARFSLLTASSSITEMKQKNIDTIKTLITVAHTDGNYLGNSWHEILKCISQLELAQLIGTGVKTRYLSGSGREREGSLKGHTLAGEEFMGLGLGNLVSGGVDKRQMASFQESVGETSSQSVVVAVDRIFTGSTRLDGNAIVDFVRWLCAVSMDELASPHHPRMFSLQKIVEISYYNMNRIRLQWSRIWHVIGDHFNKVGCNPNEDVAIFAVDSLRQLSMKFLEKGELANFRFQKDFLRPFEHIMKKNRSPTIRDMAIRCIAQMVNSQAANIRSGWKNIFAVFHQAASDHDGNIVELAFQTTCHIVTTIFQHHFPAAIDSFQDAVKCLSEFACNAAFPDTSMEAIRLIRFCGKYVSERPRVLQEYTSDDMNVAPGDRVWVRGWFPILFELSCIINRCKLDVRTRGLTVMFEIMKSYGHTFEKHWWQDLFRIVFRIFDNMKLPEQLSEKSEWMTTTCNHALYAICDVFTQFYEALNEVLLSDVFAQLQWCVKQDNEQLARSGTNCLENLVISNGEKFSPEVWDETCNCMLDIFKTTIPHVLLTWRPVGMEEDSSEKHLDVDLDRQSLSSIDKNPSERGQSQLSNPTDDSWKGRPYANQKLFASLLIKCVVQLELIQTIDNIVFYPATSKKEDAEHMVAAQQDTLDADIHIETEDQGMYKYMSSQHLFKLLDCLQESHSFSKAFNSNYEQRTVLWRAGFKGKSKPNLLKQETSSLACCLRILFRMYVDENRRDSWEEIQQRLLTVCSEALAYFITVNSESHREAWTSLLLLLLTKTLKINDEKFKAHASMYYPYLCEIMQFDLIPELRAVLRKFFLRIGVVYKIWIPEEPSQVPAALSPVW
B2: BIG1 (natural protein, human (endogenous in HeLa), UniProt Q9Y6D6 1-1849, looked up)
chain: MYEGKKTKNMFLTRALEKILADKEVKKAHHSQLRKACEVALEEIKAETEKQSPPHGEAKAGSSTLPPVKSKTNFIEADKYFLPFELACQSKCPRIVSTSLDCLQKLIAYGHLTGNAPDSTTPGKKLIDRIIETICGCFQGPQTDEGVQLQIIKALLTAVTSQHIEIHEGTVLQAVRTCYNIYLASKNLINQTTAKATLTQMLNVIFARMENQALQEAKQMEKERHRQHHHLLQSPVSHHEPESPQLRYLPPQTVDHISQEHEGDLDLHTNDVDKSLQDDTEPENGSDISSAENEQTEADQATAAETLSKNEVLYDGENHDCEEKPQDIVQNIVEEMVNIVVGDMGEGTTINASADGNIGTIEDGSDSENIQANGIPGTPISVAYTPSLPDDRLSVSSNDTQESGNSSGPSPGAKFSHILQKDAFLVFRSLCKLSMKPLSDGPPDPKSHELRSKILSLQLLLSILQNAGPIFRTNEMFINAIKQYLCVALSKNGVSSVPEVFELSLSIFLTLLSNFKTHLKMQIEVFFKEIFLYILETSTSSFDHKWMVIQTLTRICADAQSVVDIYVNYDCDLNAANIFERLVNDLSKIAQGRGSQELGMSNVQELSLRKKGLECLVSILKCMVEWSKDQYVNPNSQTTLGQEKPSEQEMSEIKHPETINRYGSLNSLESTSSSGIGSYSTQMSGTDNPEQFEVLKQQKEIIEQGIDLFNKKPKRGIQYLQEQGMLGTTPEDIAQFLHQEERLDSTQVGEFLGDNDKFNKEVMYAYVDQHDFSGKDFVSALRMFLEGFRLPGEAQKIDRLMEKFAARYLECNQGQTLFASADTAYVLAYSIIMLTTDLHSPQVKNKMTKEQYIKMNRGINDSKDLPEEYLSAIYNEIAGKKISMKETKELTIPTKSSKQNVASEKQRRLLYNLEMEQMAKTAKALMEAVSHVQAPFTSATHLEHVRPMFKLAWTPFLAAFSVGLQDCDDTEVASLCLEGIRCAIRIACIFSIQLERDAYVQALARFTLLTVSSGITEMKQKNIDTIKTLITVAHTDGNYLGNSWHEILKCISQLELAQLIGTGVKPRYISGTVRGREGSLTGTKDQAPDEFVGLGLVGGNVDWKQIASIQESIGETSSQSVVVAVDRIFTGSTRLDGNAIVDFVRWLCAVSMDELLSTTHPRMFSLQKIVEISYYNMGRIRLQWSRIWEVIGDHFNKVGCNPNEDVAIFAVDSLRQLSMKFLEKGELANFRFQKDFLRPFEHIMKRNRSPTIRDMVVRCIAQMVNSQAANIRSGWKNIFSVFHLAASDQDESIVELAFQTTGHIVTLVFEKHFPATIDSFQDAVKCLSEFACNAAFPDTSMEAIRLIRHCAKYVSDRPQAFKEYTSDDMNVAPEDRVWVRGWFPILFELSCIINRCKLDVRTRGLTVMFEIMKTYGHTYEKHWWQDLFRIVFRIFDNMKLPEQQTEKAEWMTTTCNHALYAICDVFTQYLEVLSDVLLDDIFAQLYWCVQQDNEQLARSGTNCLENVVILNGEKFTLEIWDKTCNCTLDIFKTTIPHALLTWRPNSGETAPPPPSPVSEKPLDTISQKSVDIHDSIQPRSVDNRPQAPLVSASAVNEEVSKIKSTAKFPEQKLFAALLIKCVVQLELIQTIDNIVFFPATSKKEDAENLAAAQRDAVDFDVRVDTQDQGMYRFLTSQQLFKLLDCLLESHRFAKAFNSNNEQRTALWKAGFKGKSKPNLLKQETSSLACGLRILFRMYMDESRVSAWEEVQQRLLNVCSEALSYFLTLTSESHREAWTNLLLLFLTKVLKISDNRFKAHASFYYPLLCEIMQFDLIPELRAVLRRFFLRIGVVFQISQPPEQELGINKQ

Target: T1, GST fused to the ATP8A1 tail (amino …)
Assay: pull-down

% of total input bound to the beads | Binder
18.5 % of total input | B1
24 % of total input | B2
